For test [1], the target named is T1, human GPIIb/IIIa on human platelets (human, UniProt P08514 32-1039; P05106 27-788).
T1 construct: Native receptor on gel-purified human platelets or platelets in diluted human whole blood; also called platelets in human whole blood
Description: flow cytometry, hybridoma supernatant on human platelets.
Description: Hybridomas were then screened for binding to human and cynomolgus monkey platelets using flow cytometry, and for binding to GPIIb/IIIa using Enzyme-linked immunosorbent assays (ELISA). To determine binding to human and money platelets, gel-purified human or monkey (cynomolgus) platelets in Tyrode's buffer were incubated with hybridoma supernatant. Following a 30 minute incubation, cells were fixed in 1% formaldehyde. Following fixation, cells were washed in Tyrode's buffer and a detection antibody was added (Jackson Immunoresearch goat anti-mouse IgG-PE conjugated). Antibody binding was detected by flow cytometry.

In test [2] the target is T1, human GPIIb/IIIa on human platelets. As to the kind of experiment: flow cytometry, protein spiked in diluted (1:50) human whole blood, FITC-anti-FVII on CD42b-stained platelets.
Test [3] deals with T2, mouse platelets (mouse GPIIb/IIIa) (mouse, UniProt Q9QUM0 32-1033; O54890 26-787).
T2 construct: whole, on cells; the receptor is inferred from the antibody's target
As to the kind of experiment: binding to platelets in mouse blood (method not detailed; flow cytometry implied).

Data on 11 molecules can be found in US20160115467A1 (Biogen, published 2016).

T2 sequence (Q9QUM0 32-1033, chain 1 of 2): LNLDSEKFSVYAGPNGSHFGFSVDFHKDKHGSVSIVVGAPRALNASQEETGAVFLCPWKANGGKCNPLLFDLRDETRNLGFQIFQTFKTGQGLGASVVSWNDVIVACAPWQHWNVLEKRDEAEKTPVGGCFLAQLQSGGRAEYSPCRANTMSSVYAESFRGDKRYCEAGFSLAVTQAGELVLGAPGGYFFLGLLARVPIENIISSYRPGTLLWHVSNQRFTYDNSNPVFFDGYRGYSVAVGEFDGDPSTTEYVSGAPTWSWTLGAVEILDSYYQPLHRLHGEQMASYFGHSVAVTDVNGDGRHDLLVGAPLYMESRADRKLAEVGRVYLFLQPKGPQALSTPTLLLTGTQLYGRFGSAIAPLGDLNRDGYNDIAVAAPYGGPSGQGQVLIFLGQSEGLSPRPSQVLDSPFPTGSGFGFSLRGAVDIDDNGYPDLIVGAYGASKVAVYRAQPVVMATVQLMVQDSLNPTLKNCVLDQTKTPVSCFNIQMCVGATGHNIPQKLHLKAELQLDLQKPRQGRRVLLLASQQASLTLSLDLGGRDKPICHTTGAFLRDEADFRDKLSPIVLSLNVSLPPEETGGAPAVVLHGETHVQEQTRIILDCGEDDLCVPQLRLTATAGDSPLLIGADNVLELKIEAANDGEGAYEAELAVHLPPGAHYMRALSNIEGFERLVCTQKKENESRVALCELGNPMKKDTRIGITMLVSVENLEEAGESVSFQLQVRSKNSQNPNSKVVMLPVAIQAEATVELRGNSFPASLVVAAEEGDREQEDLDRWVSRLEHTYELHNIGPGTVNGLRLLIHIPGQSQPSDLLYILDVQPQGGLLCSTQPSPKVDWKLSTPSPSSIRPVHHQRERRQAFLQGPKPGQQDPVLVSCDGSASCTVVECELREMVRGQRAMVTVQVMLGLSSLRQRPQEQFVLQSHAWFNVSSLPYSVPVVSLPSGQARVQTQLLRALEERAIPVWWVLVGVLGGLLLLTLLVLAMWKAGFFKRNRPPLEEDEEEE
T2 sequence (O54890 26-787, chain 2 of 2): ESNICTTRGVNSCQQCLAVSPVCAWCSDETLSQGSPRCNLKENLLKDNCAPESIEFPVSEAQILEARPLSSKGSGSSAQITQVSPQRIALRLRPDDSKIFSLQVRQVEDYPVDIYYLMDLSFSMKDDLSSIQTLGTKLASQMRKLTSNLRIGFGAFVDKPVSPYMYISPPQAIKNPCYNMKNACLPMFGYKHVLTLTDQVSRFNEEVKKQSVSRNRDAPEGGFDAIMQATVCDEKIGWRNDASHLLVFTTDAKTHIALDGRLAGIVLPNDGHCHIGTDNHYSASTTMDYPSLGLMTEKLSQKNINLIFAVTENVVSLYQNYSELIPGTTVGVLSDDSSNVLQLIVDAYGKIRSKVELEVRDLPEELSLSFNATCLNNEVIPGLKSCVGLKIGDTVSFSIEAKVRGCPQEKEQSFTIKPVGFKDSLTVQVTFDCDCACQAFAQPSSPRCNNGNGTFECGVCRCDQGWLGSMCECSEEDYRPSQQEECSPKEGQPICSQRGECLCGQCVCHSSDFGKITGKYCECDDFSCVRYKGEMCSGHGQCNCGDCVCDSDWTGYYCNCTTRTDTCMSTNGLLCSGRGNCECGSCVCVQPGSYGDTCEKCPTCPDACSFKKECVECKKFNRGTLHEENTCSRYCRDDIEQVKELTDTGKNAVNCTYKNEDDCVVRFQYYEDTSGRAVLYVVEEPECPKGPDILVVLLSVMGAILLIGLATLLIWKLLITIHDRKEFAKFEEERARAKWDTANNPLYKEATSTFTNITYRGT

B1: 18F7 (antibody, V domains shown)
VH: QVQLKESGPGLVAPSQSLSITCTVSGFSLTSYGVSWVRQPPGKGLEWLGIIWGDGSTNYHSVLKSRLSISKDNSKSQVFLKLNSLQTDDTATYYCAKQDFDVWGAGTTVTVSS
VL: DVQMIQSPFSLSASLGDIVTMTCQASQGTSINLNWFQQKPGKAPKLLIYGVSNLEDGVPSRFSGSRYGTDFTLTIGSLEDEDMATYFCLQHSYLPYTFGGGTKLEIKR
notes: Mouse monoclonal from BALB/c hybridoma, tested as hybridoma supernatant; also called 18F7 antibody
As for B1, the binding result in test [1] was “binds”.

B2: 12B2 (antibody, V domains shown)
VH: QVQLQQSGAELTKPGASVKISCKATGYTFSSYWIEWVKQRPGHGLEWIGEILPGSGITKYNDKFKGKATFTADTSSNTAYMQLSSLTSEDSAVYSCARLISYYYAMDYWGQGTSVTVSS
VL: DIQMTQTTSSLSASLGDRVTISCRASQDISNYLNWYQQKPDGTVKLLIYYTSRLHSGVPSRFSGSGSGTDYSLTISNLEQEDIATYFCQQGNTLPPTFGGGTKLEIKR
notes: Mouse monoclonal from BALB/c hybridoma, tested as hybridoma supernatant; also called 12B2 antibody
With B2, in test [1], the binding result is “binds”.

B3: 1H6 (antibody, V domains shown)
VH: QVQLQQSGAELVRPGTSVKVSCKASGYAFTNYLIEWVKQRPGQGLEWIGVINPGSGGTNYNEKFKGKATLTADKSSSTAYMHLSSLTSDDSAVYFCARGRYEWYFDVWGAGTTVTVSS
VL: DIQMTQTTSSLSASLGDRVTISCRASQDITNYLNWYQRKPDGTVKLLIYYTSRLHSGVPSRFSGSGSGTDYSLTISNLEQEDIATYFCQQGYTLPYTFGGGTKLEIKR
notes: Mouse monoclonal from BALB/c hybridoma, tested as hybridoma supernatant; also called 1H6 antibody
As to B3, in test [1], the binding result is “binds”.

B4: 38A8 (antibody, V domains shown)
VH: QVQLQQSGAELVRPGTSVKVSCKASGYAFTNYLIEWIKQRPGQGLEWIGVINPGSGGTNYNEKFKGKATLTADKSSSTAYMQLSSLTSDDSAVYFCARGRYEWYFDVWGAGTTVTVSS
VL: DIQMTQTTSSLSASLGDRVTISCRASQDISNYLNWYLQKPDGTVKLLIYYTSRLHSGVPSRFSGSGSGTDYSLSISNLEQEDIATYFCQQGYTLPYTFGGGTKLEIKR
notes: Mouse monoclonal from BALB/c hybridoma, tested as hybridoma supernatant; also called 38A8 antibody
On to B4, for which the binding result in test [1] is “binds”.

B5: rFVIIa (enzyme)
chain 1: ANAFLEELRPGSLERECKEEQCSFEEAREIFKDAERTKLFWISYSDGDQCASSPCQNGGSCKDQLQSYICFCLPAFEGRNCETHKDDQLICVNENGGCEQYCSDHTGTKRSCRCHEGYSLLADGVSCTPTVEYPCGKIPILEKRNASKPQGR
chain 2: IVGGKVCPKGECPWQVLLLVNGAQLCGGTLINTIWVVSAAHCFDKIKNWRNLIAVLGEHDLSEHDGDEQSRRVAQVIIPSTYVPGTTNHDIALLRLHQPVVLTDHVVPLCLPERTFSERTLAFVRFSLVSGWGQLLDRGATALELMVLNVPRLMTQDCLQQSRKVGDSPNITEYMFCAGYSDGSKDSCKGDSGGPHATHYRGTWYLTGIVSWGQGCATVGHFGVYTRVSQYIEWLQKLMRSEPRPGVLLRAPFP
notes: Control without targeting moiety
Turning to B5, the binding result in test [2] was “no binding”.

B6: 28F4 (antibody, V domains shown)
VH: EVQLVESGGDLVKPGGSLKLSCAASGFTFSNYGMSWVRQTPDKRLEWVATISSGGTYTYYPDSVKGQFTIFRDNAKNTLYLQMSSLKSEDTAMYYCTRRDYDYEGFAYWGQGTLVTVS
VL: DIVLTQSPATLSVTPGDSVSLSCRASQSISNNLHWYQQKSHESPRLLIKYASHSISGIPSRFSGSGSGTDFTLSINSVETEDFGMYFCQQSNNWPFTFGSGTKLEIKR
notes: Mouse monoclonal from BALB/c hybridoma, tested as hybridoma supernatant; also called 28F4 antibody
B6: in test [1], the binding result is reported as “binds”.

B7: 28C2 (antibody, V domains shown)
VH: QVTLKASGPGIVQPSQTLSLTCSFSGFSLNTSGMGVGWIRQPSGKGLEWLAHIWWDDDKRYNPALKSRLTISKDTSNNQIFLKIASVDTADTATYYCARSHYYGTFYFDYWGQGTTLTVSS
VL: DVQITQSPSYLAASPGETITINCRASKSISKYLAWYQEKPGTTYKLLIYSGSTLQSGIPSRFSGSGSGTDFTLTISSLEPEDFAMYYCQQHIEYPWTFGGGTKLEIKR
notes: Mouse monoclonal from BALB/c hybridoma, tested as hybridoma supernatant; also called 28C2 antibody
For the molecule B7, the binding result in test [1] is on record as “binds”.

B8: 9D6 (antibody, V domains shown)
VH: QVTLKESGPGILQPSQTLSLTCSFSGFSLSTSGMGVGWIRQSSGKGLEWLAHIWWDDDKRYNPTLKSRLTISKDTSNNQVFLKIANMDTADIATYYCARSHYNGTFYFDFWGQGITLTVSS
VL: DVQITQSPSYLAASPGETITINCRASKSISKYLAWYQEKPGKTNKLLIYSGSTLQSGIPSRFSGSGSGTDFTLTISTLEPEDFAMYYCQQHIEYPWTFGGGTKLEIKR
notes: Mouse monoclonal from BALB/c hybridoma, tested as hybridoma supernatant; also called 9D6 antibody
Turning to B8, the binding result in test [1] was “binds”.

B9: 34D10 (antibody, V domains shown)
VH: EVKLVESGGGLVKPGGSLKLSCAASGFTFSAYAMSWVRQTPEKRLEWVASISSGGTTYYPDSVKRRFTISRDNARNILYLQMSSLRSEDTAMYYCTRGGDYGYALDYWGQGTSVTVSS
VL: ENVLTQSPAIMSASLGEKVTMSCRASSSVNYMYWYQQKSDASPKLWIYYTSNLAPGVPARFSGSGSGNSYSLTISSMEGEDAATYYCQQFSSSPWTFGGGTKLEIKR
notes: Mouse monoclonal from BALB/c hybridoma, tested as hybridoma supernatant (detected with anti-mouse IgG); also called monoclonal antibody 34D10; 34D10 antibody
For the molecule B9, the binding result in test [1] is “binds”; in test [3], “no binding”.

B10: 4B11 (antibody, V domains shown)
VH: EVKLVESGGGLVKPGGSLKLSCAASGFTFSSYAMSWVRQTPEKRLAWVASISSGGNIYFPDSVKGRFTISRDDARNILYLQMRSLRSEDTAMYYCARGGDYGYAMDYWGQGTSVTVSS
VL: ENVLTQSPAIMSASLGEKVTMNCRASSSVNYMYWYQQKSDASPKLWIFYTSNLAPGVPARFSGSGSGNSYSLTISSMEGEDAATYYCQQFSSSPWTFGGGSKLEIKR
notes: Mouse monoclonal from BALB/c hybridoma, tested as hybridoma supernatant; also called 4B11 antibody
Consider B10, for which the binding result in test [1] is on record as “binds”.

B11: 36A8 (antibody, V domains shown)
VH: EVRLVESGGGLVKPGGSLKLSCAASGFTFSTYAMSWVRQTPEKRLEWVASINGGGSTYYPDSVKGRFTISRDNARNILYLQMRSLRSEDTAMYYCARGGDYGYALDYWGQGTSVTVSS
VL: ENVLTQSPAIMSASLGEKVTMNCRASSSVNYMYWYQQKSDASPKLWIFYTSNLAPGVPARFSGSGSGNSYSLTISSMEGEDAATYYCQQFSSSPWTFGGGSKLEIKR
notes: Mouse monoclonal from BALB/c hybridoma, tested as hybridoma supernatant; also called 36A8 antibody
Regarding B11, in test [1], the binding result is “binds”.
